Assay results: the supplement of paper PMC7877785
± gives the uncertainty stated by the source.

Assay: self-splicing fitness, log relative to wild type (ln ratio); higher = more splicing; Tetrahymena group I intron in knt gene, E. coli kanamycin selection, DiMSum; sequences stand for … in CUCUCU…GGAGGGAAAAGUUAUCAGGCAUGCACCUGGUAGCUAGUCUUUAAACCAAUAGAUUGCAUCGGUUUAAAAGGCAAGACCGUCAAAUUGCGGGAAAGGGGUCAACAGCCGUUCAGUACCAAGUCUCAGGGGAAACUUUGAGAUGGCCUUGCAAAGGGUAUGGUAAUAAGCUGACGGACAUGGUCCUAACCACGCAGCCAAGUCCUAAGUCAACAGAUCUUCUGUUGAUAUGGAUGCAGUUCACAGACUAAAUGUCGGUCGGGGAAGAUGUAUUCUUCUCAUAAGAUAUAGUCGGACCUCUCCUUAAUGGGAGCUAGCGGAUGAAGUGAUGCAACACUGGAGCCGCUGGGAACUAAUUUGUAUGCGAAAGUAUAUUGAUUAGUUUUGGAGUACUCGUGGUCG
Procedure, shortened: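 Colonies from six replicate transformations of E. coli BL21(DE3) were pooled and amplicon-sequenced on an Illumina HiSeq 2500. The library placed an intron with all eight P1ex-region nucleotides randomised inside the knt kanamycin-resistance gene on pET-22b(+), and cells grew overnight at 37°C or 30°C on LB agar with or without 25 μg/mL kanamycin (plus 100 μg/mL carbenicillin, 50 μM IPTG, 0.2% rhamnose). Fitness is the DiMSum error-weighted combination of wild-type-normalised replicate fold changes, kanamycin versus none.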

| Sequence | self-splicing fitness (ln) (30 °C) | self-splicing fitness (ln) (37 °C) |
| --- | --- | --- |
| CCGUAGCAAUAUUACGUGAG | -3.11 ± 0.34 | -2.51 ± 0.38 |
| CCGUAGCAAUAUUACGUGCG | -2.39 ± 0.11 | -1.68 ± 0.12 |
| CCGUAGCAAUAUUACGUGUC | -3.6 ± 0.29 | -1.87 ± 0.32 |
| CCGUAGCAAUAUUACGUUAA | -3.18 ± 0.4 | -2.67 ± 0.31 |
| CCGUAGCAAUAUUACGUUCG | -0.619 ± 0.066 | 0.0526 ± 0.095 |
| CCGUAGCAAUAUUACGUUGG | -4.39 ± 0.27 | -3.1 ± 0.19 |
| CCGUAGCAAUAUUACGUUUU | -4.21 ± 0.23 | -2.87 ± 0.22 |
| CCUAAGCAAUAUUACGAAGG | -3.55 ± 0.16 | -2.9 ± 0.2 |
| CCUAAGCAAUAUUACGAAUC | -0.765 ± 0.2 | – |
| CCUAAGCAAUAUUACGACGC | – | -1.59 ± 0.42 |
| CCUAAGCAAUAUUACGACGG | -3.49 ± 0.19 | -2.24 ± 0.24 |
| CCUAAGCAAUAUUACGACUA | -2.87 ± 0.4 | -1.59 ± 0.33 |
| CCUAAGCAAUAUUACGAGAA | -2.67 ± 0.36 | – |
| CCUAAGCAAUAUUACGAGAU | -3.2 ± 0.27 | -3.33 ± 0.31 |
| CCUAAGCAAUAUUACGAGGC | -3.32 ± 0.15 | -3.61 ± 0.22 |
| CCUAAGCAAUAUUACGAUAG | -1.12 ± 0.065 | -0.285 ± 0.074 |
| CCUAAGCAAUAUUACGCAAC | -3.08 ± 0.26 | -3.03 ± 0.4 |
| CCUAAGCAAUAUUACGCGCA | -3.25 ± 0.24 | -2.2 ± 0.19 |
| CCUAAGCAAUAUUACGCGGU | -2.54 ± 0.13 | -3.06 ± 0.18 |
| CCUAAGCAAUAUUACGCUAU | -4.71 ± 0.39 | -2.35 ± 0.24 |
| CCUAAGCAAUAUUACGGAGA | – | -1.46 ± 0.22 |
| CCUAAGCAAUAUUACGGAGG | -4.42 ± 0.29 | -2.71 ± 0.31 |
| CCUAAGCAAUAUUACGGCAA | -3.72 ± 0.21 | -2.91 ± 0.23 |
| CCUAAGCAAUAUUACGGCCU | -1.9 ± 0.16 | -1.84 ± 0.37 |
| CCUAAGCAAUAUUACGGGCC | -3.18 ± 0.27 | -2.12 ± 0.22 |

| Sequence | self-splicing fitness (ln) (30 °C) | self-splicing fitness (ln) (37 °C) |
| --- | --- | --- |
| CCUAAGCAAUAUUACGGGGG | -3.51 ± 0.2 | -2.5 ± 0.24 |
| CCUAAGCAAUAUUACGGGUC | -4.66 ± 0.36 | -3.25 ± 0.22 |
| CCUAAGCAAUAUUACGUCUA | -3.9 ± 0.24 | -3.48 ± 0.36 |
| CCUAAGCAAUAUUACGUCUU | -3.47 ± 0.18 | -2.42 ± 0.22 |
| CCUAAGCAAUAUUACGUGUA | -3.61 ± 0.15 | -1.89 ± 0.14 |
| CCUAAGCAAUAUUACGUUUA | -3.45 ± 0.18 | -3.14 ± 0.2 |
| CCUCAGCAAUAUUACGAAAG | -1.51 ± 0.069 | -0.45 ± 0.087 |
| CCUCAGCAAUAUUACGACCA | -2.93 ± 0.34 | -1.99 ± 0.46 |
| CCUCAGCAAUAUUACGACCU | -2.59 ± 0.16 | -2.59 ± 0.29 |
| CCUCAGCAAUAUUACGAUCA | -3.65 ± 0.22 | -2.96 ± 0.26 |
| CCUCAGCAAUAUUACGCAAA | – | -2.46 ± 0.3 |
| CCUCAGCAAUAUUACGCAUC | -2.68 ± 0.18 | -2.85 ± 0.41 |
| CCUCAGCAAUAUUACGCAUG | -1.83 ± 0.092 | -0.467 ± 0.086 |
| CCUCAGCAAUAUUACGCGCU | -2 ± 0.13 | -2.79 ± 0.25 |
| CCUCAGCAAUAUUACGCGGC | -3.25 ± 0.2 | -2.5 ± 0.2 |
| CCUCAGCAAUAUUACGCGUG | -1.85 ± 0.081 | -0.545 ± 0.072 |
| CCUCAGCAAUAUUACGGAAA | -3.7 ± 0.23 | -1.63 ± 0.17 |
| CCUCAGCAAUAUUACGGACG | -0.587 ± 0.064 | 0.272 ± 0.081 |
| CCUCAGCAAUAUUACGGACU | -3.93 ± 0.33 | -1.79 ± 0.24 |
| CCUCAGCAAUAUUACGGCAA | -3.12 ± 0.24 | -2.41 ± 0.23 |
| CCUCAGCAAUAUUACGGGAC | -3.63 ± 0.23 | -1.98 ± 0.26 |
| CCUCAGCAAUAUUACGGGCA | – | -2.2 ± 0.24 |
| CCUCAGCAAUAUUACGGGUU | -4.07 ± 0.21 | -2.02 ± 0.15 |
| CCUCAGCAAUAUUACGUAAA | -3.87 ± 0.24 | -3.05 ± 0.29 |
